Results as given in patent US5795761A, “Mutants of 2,5-diketo-D-gluconic acid (2,5-DKG) reductase A” (Rutgers, The State University of New Jersey, priority 1996, dated 1998).
Substitutions are numbered along the chain they refer to. Names and notes keep the numbering of the source.

Assays:
Assay type in all cases: biochemical, Corynebacterium sp. (ATCC 31090)
[1] = substrate: O=C(O)C(=O)[C@@H](O)[C@H](O)C(=O)CO; assay: Substrate kinetics of 2,5-DKG reduction (NADPH oxidation followed at 340 nm); conditions: other: 50 mM tris pH 7.0, 0.2 mM NADPH, 2 to 14 mM substrate, 25° C.
Description: (§1) The preparations of wild-type and mutant Q192R 2,5-DKG reductase A enzymes were characterized kinetically as to their ability to reduce the substrate 2,5-DKG to 2-KLG. Assays were done in 1 ml total volume of 50 mM tris, pH 7.0, containing 0.2 mM NADPH, a constant amount of enzyme (15-20 μg) and amounts of substrate varying from 2 to 14 mM. The assays were done at 25° C., and the rate of substrate reduction was measured spectrophotometrically by measuring the loss of absorbance at 340 nm wavelength (which is indicative of the oxidation of the cofactor NADPH to NADP+).
The data were analyzed according to the well-known Michaelis equation to determine the kinetic parameters Vmax and Km using the Enzfit software package (Biosoft, Cambridge, UK) on a Epson desktop computer.

[2] = substrate: O=C(O)C(=O)[C@@H](O)[C@H](O)C(=O)CO; assay: Substrate kinetics of 2,5-DKG reduction, 200 μM NADPH, substrate 0 to 30 mM; conditions: other: 200 μM NADPH, 0 to 30 mM 2,5-DKG; pH 7.0; 25.0 °C
Description: as §1
A crude kinetic characterization of 2,5-DKG Reductase A mutants D278A, V277A, E276A, D275A, P274A, H273A, A272G, S271A, V270A, R269A, S267A, and D265A was carried out. […] 2-5-DKG Reductase A mutant A272G was characterized in essentially the same manner as in Example 5 except that in order to determine kinetic parameters for the NADPH-dependent reduction of 2,5-DKG by 2,5-DKG reductases, a series of reactions were done with constant saturating concentration of NADPH (200 μM) and varying concentrations of substrate from 0 to 30 mM.

[3] = substrate: NC(=O)C1=CN([C@@H]2O[C@H](COP(=O)(O)OP(=O)(O)OC[C@H]3O[C@@H](n4cnc5c(N)ncnc54)[C@H](OP(=O)(O)O)[C@@H]3O)[C@@H](O)[C@H]2O)C=CC1; assay: Cofactor kinetics, constant 2,5-DKG and varying NADPH; conditions: other: 50 mM bis-Tris pH 6.8, 10 mM 2,5-DKG, 2.5 to 200 μM NADPH
Description: The cofactor affinity of DKG reductase A F22Y, Q192R, A272G, and F22Y/A272G was determined by analysis of a series of reactions with constant substrate concentration and varying concentrations of NADPH.
Each series of reactions consisted of 50 mM bis-Tris pH 6.8, 10 mM 2,5-DKG, from 2.5 to 200 μM NADPH, and enzyme in a total volume of 1.0 ml.
Initial rate data for the reactions were fitted to the Michaelis-Menten equation by non-linear regression analysis as previously described to determine KM,NADPH.

B1: Corynebacterium sp. 2,5-DKG reductase A, wild type (Corynebacterium sp. ATCC 31090) (protein)
chain: MTVPSIVLNDGNSIPQLGYGVFKVPPADTQRAVEEALEVGYRHIDTAAIYGNEEGVGAAIAASGIARDDLFITTKLWNDRHDGDEPAAAIAESLAKLALDQVDLYLVHWPTPAADNYVHAWEKMIELRAAGLTRSIGVSNHLVPHLERIVAATGVVPAVNQIELHPAYQQREITDWAAAHDVKIESWGPLGQGKYDLFGAEPVTAAAAAHGKTPAQAVLRWHLQKGFVVFPKSVRRERLEENLDVFDFDLTDTEIAAIDAMDPGDGSGRVSAHPDEVD
notes: made in house; host or cells: Acetobacter cerinus (ATCC No. 39140)
Km [1]: 28 mM | Vmax [1]: 7.8 μmoles per minute per milligram of protein | kcat/Km [1]: 140 M⁻¹ s⁻¹

B2: Corynebacterium sp. 2,5-DKG reductase A mutant A272G (Corynebacterium sp. ATCC 31090; A272G) (protein)
chain: B1 chain with A272G
notes: made in house
Km [2]: 42.61 ± 12.13 mM | kcat [2]: 21.44 ± 4.10 s⁻¹ | Km [3]: 0.00492 mM

B3: Corynebacterium sp. 2,5-DKG reductase A mutant F22Y/A272G (Corynebacterium sp. ATCC 31090; A272G/F22Y) (protein)
chain: B1 chain with F22Y, A272G
notes: made in house
Km [3]: 0.00819 mM

B4: Corynebacterium sp. 2,5-DKG reductase A mutant Q192R (Corynebacterium sp. ATCC 31090; Q192R) (protein)
chain: B1 chain with Q192R
notes: made in house; host or cells: Acetobacter cerinus
Km [1]: 21 mM | Vmax [1]: 14.0 μmoles per minute per milligram of protein | kcat/Km [1]: 335 M⁻¹ s⁻¹
